Reference: the supplement of paper PMC12764529
± gives the half width of the 95% confidence interval.

Legend:
[1] = folding stability dG unfold from trypsin proteolysis; higher = more stable
Description: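 Folding stability of de novo designed mini-proteins (<80 aa, no Cys; designed by TrROS, TrMRF, ProteinMPNN and the joint model) was measured by cDNA display proteolysis with trypsin and chymotrypsin. Each protease was used at 11 concentrations in a threefold dilution series plus a no-protease condition. K50 was inferred by Bayesian fitting of sequencing counts, and dG unfold was derived against a sequence-predicted unfolded-state K50 (Tsuboyama et al. method). Sequences shown include variable-length N-terminal GS-type padding (SAGGSAGG...) inside a display construct carrying a PA tag. Rows were kept only if the AF2 dimer inter-PAE was >15, to exclude likely homo-oligomers.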

[2] = folding stability dG unfold (combined trypsin and chymotrypsin); higher = more stable
Outline: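 K50 was inferred by Bayesian fitting of sequencing counts obtained after protease digestion of designed mini-proteins. Unfolding free energy was derived by comparison with a sequence-predicted unfolded-state K50 and a shared folded-state K50, for each protease or both combined. The mini-proteins were under 80 residues, had no cysteine, were carried in a PA-tagged cDNA display construct, and were kept only if AlphaFold2 dimer inter-PAE exceeded 15.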

Sequence	folding stability dG unfold [1] [kcal/mol]	folding stability dG unfold [2] [kcal/mol]
SAGGSAGGSGMEEAIEKAKKEILEKNPDLPPNAVVNEPILVKDPSTDEEYVIPVTFTIPENNLSAGGSAGGS [r12_591_JUSTAS]	-0.137 ± 0.063	-0.61 ± 0.67
SAGGSLPADAEVTEVVEDPSKGVVTVKVTVRDSEGKVVEERTVVTPVEPVPPLSPENLKKNLLLTLLSAGGS [r16_697_JUSTAS]	0.249 ± 0.12	-0.741 ± 0.94
SAGGSAGGSAPPPLPPDAVVTIPNPGSLEEVKKLAEKLREEHGIKKIKITVEPNSVTLTVASAGGSAGGSAG [r3_73_JUSTAS]	0.476 ± 0.15	< -1
SAGGSAGGSAGGMVIEIDVPPSVPASEVKEKVKAELLKKGVPKDTEIKVIVKPKNPELLSAGGSAGGSAGGS [r10_746_JUSTAS]	-0.656 ± 0.2	< -1
SAGGSAGGSAGGHIVIPNKRWYIQFPNGKPIGEHRFDTAEDIAKELPPNMRIVPPGDPISAGGSAGGSAGGS [r10_310_TrROS]	0.281 ± 0.32	< -1
SAGGSAGGSAGTKEYEVKVGDKIVRISETPDSRVIDYPETDFKKEFSSDFPGKPIAEYLASAGGSAGGSAGG [r11_648_TrMRF]	-0.781 ± 0.49	< -1
SAGGSAGGSAGMKPGQEVRVEVPVPNNGKKIKIPVYVPPGYTPKQAKNMAIMMAKMIREMSAGGSAGGSAGG [r11_355_TrROS]	0.516 ± 0.072	0.0699 ± 0.096
SAGGSAGGSAGTVIYIDPETDMARVLVPDADGVLVDERAVPPDQLPDVLSQGNFTVVPAPSAGGSAGGSAGG [r11_159_TrMRF]	-0.327 ± 0.36	-0.943 ± 0.84
SGNSLNEKGESYPITVKAPDPNVTPEQVKAALEKAGAKVLEIKRPPKGSTLTVSVEITDPEKVKEAFEKLSA [r9_1154_JUSTAS]	-1.05 ± 0.44	< -1
SMKIKITAKTEEEREKAKKLLEEIAKELNIEIKIEKIEVIPKPKPEKVELSEEEKKKLKELEEEGLIEEESA [r9_472_TrROS_Hall]	0.578 ± 0.059	< -1
SAGGSPTIDITPEVFEELKKKGVTPDKESFNITASLPDGTVYEGTITLPPSNPNIPFEYKPVDKPLESAGGS [r16_497_JUSTAS]	-0.22 ± 0.061	-0.515 ± 0.21
SAGGEPIKIKIDSVQEQPNPDGGPYLYVKITYPDGGRQTGMFDSPEDFKSQLEGEPGFKKIEIEPIRSAGGS [r16_757_TrROS]	-0.839 ± 0.52	< -1
SAGGSAGGSAMTPDELKDNFPNMPVEPRPLNNSTQWKIEMPGGMRIEIQYDPGKPKIDIEEGSAGGSAGGSA [r18_13_TrROS]	-0.039 ± 0.064	-0.622 ± 0.23
SAGGSAGGSKIPIHIWVPPGGSPKKAKERIRRYIREQMPPGNKDMPIDDIKIDVHVMPPGQPVSAGGSAGGS [r12_384_TrROS]	-0.427 ± 0.9	< -1
SAGGSAGGSAMILVPKEKLEEAAKKLNLNIVEVKPVPPGIEVAEVKVEGSEEQKKAFLEALLSAGGSAGGSA [r18_175_JUSTAS]	0.216 ± 0.082	0.0149 ± 0.2
SAGGSAGGSAGPVISKSEVESTEIIFSYNNKHEITVKKVKKTITTTIPPVKLKPDGTPILSAGGSAGGSAGG [r11_558_JUSTAS]	-0.803 ± 0.51	-0.349 ± 0.54
SAGGMVTVERGPENRVITITLPPSVPEKVDELAAKLGTDYVTTEPLPEGDLVRYTIYVPGDNPALLESAGGS [r16_479_JUSTAS]	0.0152 ± 0.12	-0.948 ± 0.41
SAGGSAGGSAGEPIRVRIENPPGGQRKITIPTDDLQEKGITPKDIAKKLAREFGWPIEVWSAGGSAGGSAGG [r11_829_TrROS]	0.257 ± 0.3	< -1

Sequence	folding stability dG unfold [1] [kcal/mol]	folding stability dG unfold [2] [kcal/mol]
SAGGSAGGSAGGHPVRVRITWPDGQQRTIPIPVDPENGQVTLEEIAKTISPEHGWKIEVFSAGGSAGGSAGG [r7_492_TrROS]	-0.107 ± 0.2	-0.638 ± 0.51
SDVNIKPEKVDPNGIFTVEIPVDNNNVDKLREIINEIFPNFEPTEVKPNPESGYHEIIMRVPDGKAFEFSSA [r9_1164_TrROS]	-0.141 ± 0.04	-0.55 ± 0.14
SSVITNKGSLTITKTTLPDGTVVITITDPNGGRTTTITIPADSDGEATVTPTGSGNAATSTIPVSSLKLSSA [r9_1071_JUSTAS]	0.505 ± 0.096	0.183 ± 0.21
SAGGSAGGPYMVMIRMPNNPQPIWFPPDEVKEALKEGDEKRIKFPGGGMEMTIRNVDDIEIMPPSAGGSAGG [r6_509_TrROS]	-0.793 ± 0.58	< -1
SAGGSRQVIEWEFKDPKNGKPFEISIEYDEENGVPMVEIRDRNGEPNAVVPVPPDNADEALEKFGISAGGSA [r2_115_TrROS]	-0.903 ± 0.46	< -1
SAGGSAGGSAGGKVRVETDPERGYYKVKIRNPNNGRKIKVPVPMDDPKKAKKQAKELAKSAGGSAGGSAGGS [r10_1117_TrROS]	-0.863 ± 0.5	< -1
SAGMYTVLETRTVNGRTVTLIDVPERPLTVTVTVDRDPSGRRTVTVNVEGEVKEILEKANPDIDELTLESAG [r5_933_JUSTAS]	0.456 ± 0.096	-0.15 ± 0.2
SAGGSAEEKAKAIKEELEKKGEVKKVTVTIEPTPENSTKVTVEIEKEPKPKPKEYKYTELPNGKKVILSAGG [r13_957_JUSTAS]	-0.416 ± 0.12	< -1
SAGGSAGGSMVLIIVPPSKPELAEEKAKELAEKGEIKEYEIKTVSSEEEAEKLAKNYEKVILESAGGSAGGS [r12_679_JUSTAS]	-0.171 ± 0.083	-0.324 ± 0.28
SAGGMVVRTPDGSTVEITVTDPASGSPYRSTDPGGGVEAAIAAINASPAYPNATVSITRYDAGTASPASAGG [r13_914_JUSTAS]	-0.286 ± 0.1	-0.485 ± 0.16
SAGGSLPVVDGPSDLVETTVYEDGTIEIKVERAEPPGVPTVRTLTITLEPPVGPPKVPPGNPKYLGSAGGSA [r2_368_JUSTAS]	-1.08 ± 0.53	< -1
SAGGSAGGSAGGEVEVPKDASLVVTYPNGERKEVPVEDKVPVKGLPVYLLGPDGTLREIDSAGGSAGGSAGG [r7_54_TrMRF]	0.294 ± 0.18	< -1
SAGGSAGGSAGGSMGPVPVWITIKIPDKNGKPKRKIEIPMEGPNMTPSEIRKQAKPFIKSAGGSAGGSAGGS [r4_375_TrROS]	-0.281 ± 0.49	< -1
SAGGSAGGSAGGSGGSMEVSISEAPPEYLVVTVYDPATGKTTVRKVSPSEVKSLKYEGGSAGGSAGGSAGGS [r4_494_JUSTAS]	0.274 ± 0.053	< -1
SAGGSAGGPVTVVPVVTPADVPVLTTPGGAPARPASRPDLVRPVASTVTVTITPAPAAPTVTVLSAGGSAGG [r6_537_JUSTAS]	0.857 ± 0.038	0.135 ± 0.12
SAGGSAVVEIPIPPSSLDVRALIVPTDGPLTTVLVEETLPDGTPRVRLYRYDPARGEVRPLAEELPSAGGSA [r2_402_JUSTAS]	-0.671 ± 0.17	< -1
VEFEEIETTFTLAAPGGSLVDVDLKTTKKDPKNGKVYIEGTLTTVDPGGVPRTLPTKRVVSPEELKQLVSES [r1_371_JUSTAS]	0.143 ± 0.19	-0.318 ± 0.49
SAGGSAGGSAGGGESAAPVVATTVSEEVFEEPGGTVIRRYTVTTPAATTTLSTEVLPPLLSAGGSAGGSAGG [r7_43_JUSTAS]	-0.25 ± 0.17	< -1
